Measurements taken from patent US20190367616A1 (SYMPHOGEN A S, published 2019).

T1: mouse PD-1 ECD (Sino Biological cat. no. 50124-MO8H) (mouse, UniProt Q02242 25-169)
T1 construct: extracellular domain; Bought monomeric ECD
T1 sequence (looked up): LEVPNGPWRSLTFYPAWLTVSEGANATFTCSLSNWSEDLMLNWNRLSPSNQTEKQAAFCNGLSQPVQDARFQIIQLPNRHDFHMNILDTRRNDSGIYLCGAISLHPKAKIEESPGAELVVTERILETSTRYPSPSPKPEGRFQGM


What was measured:
Assay in all cases: SPR, antibody on sensor, monomeric PD-1 ECD in solution
[1] = target: T2, human PD-1 ECD (Acro Biosystems cat. no. PD1-H52219) (human, UniProt Q15116 25-170)
T2 construct: extracellular domain; Bought monomeric ECD; also called monomeric PD-1 antigen
Method: (§1) The kinetic binding analysis was performed by Surface Plasmon Resonance (SPR) using a Continuous Flow Microspotter (CFM, Wasatch Microfluidics, US) combined with an Ibis MX96 SPR instrument (IBIS Technologies, The Netherlands). Surface Plasmon Resonance imaging analysis was performed on G-a-hu-IgG Fc SensEye® SPR sensors (Ssens BV, The Netherlands). Anti-PD-1 antibodies expressed in IgG₁ LALA format (i.e., having the mutations L234A/L235A) were diluted to 2.5 nM in PBS-T (1×PBS with 0.05% Tween 20, pH 7.4). Antibodies were spotted onto a G-a-hu-IgG Fc SensEye® for 15 minutes using a Continuous Flow Microspotter (CFM, Wasatch Microfluidics, Salt Lake City, US). After spotting, the SensEye® was positioned in the IBIS MX96 biosensor, and antibodies were chemically fixed to the sensor surface using Fix It Kit (Ssens BV, The Netherlands). Kinetic analysis was performed by applying a kinetic titration series (Karlsson et. al., Anal. Biochem. 349(1):136-47 (2006)), where monomeric PD-1 antigen was injected in increasing concentrations from 2 nM to 100 nM without application of surface regeneration steps after each antigen injection. Binding was tested to human PD-1 ECD (Acro Biosystems cat. no. PD1-H52219), mouse PD-1 ECD (Sino Biological. cat. no. 50124-MO8H) and cynomolgus PD-1 ECD (Acro Biosystems cat. no. PD1-05223) in three separate experiments. Antigen association was performed for 15 minutes and antigen dissociation was performed for 60 minutes. The kinetic analysis was performed at 25° C. After completion, the recorded binding responses were fitted to a simple Langmuir 1:1 binding model with Scrubber 2 software for calculation of the on-rate (kₒₙ or kₐ), off-rate (koff or kd) and affinity (KD) constants.

[2] = target: T3, cynomolgus PD-1 ECD (Acro Biosystems cat. no. PD1-05223) (cynomolgus, UniProt B0LAJ3 25-170)
T3 construct: Bought monomeric ECD; not shown: any purification tag of the vendor's product (Acro Biosystems PD1-05223, probably a His tag)
Method: as §1

[3] = target: T1, mouse PD-1 ECD (Sino Biological cat. …)
Method: as §1

T3 sequence (B0LAJ3 entry or part of it limits assumed): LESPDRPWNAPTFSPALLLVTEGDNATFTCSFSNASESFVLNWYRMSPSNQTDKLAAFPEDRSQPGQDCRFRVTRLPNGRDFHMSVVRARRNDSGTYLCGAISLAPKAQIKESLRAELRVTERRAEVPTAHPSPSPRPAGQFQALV
T2 sequence (Q15116 25-170, one chain of several): as the sequence (B0LAJ3 entry or part of it limits assumed) above, with E2D, A10P, L19V, A35T, R75Q, A144T counted along it

Binder	Kd [1] [nM]	koff [1] [s⁻¹]	kon [1] [M⁻¹ s⁻¹]	Kd [2] [nM]	koff [2] [s⁻¹]	kon [2] [M⁻¹ s⁻¹]	binding result [3]	Kd [3] [nM]	koff [3] [s⁻¹]	kon [3] [M⁻¹ s⁻¹]
antibody 18040 (antibody, V domains shown, Tested as human IgG1 L234A/L235A (LALA), kappa; The VH/VL entries carry X at variable positions) VH: QVQLVESGGGLVKPGGSLRLSCAASGFTFSDYYMNWIRQAPGKGLEWVSYISSTGSTIYYADSVKGRFTISRDNAKNSLYLQMDSLRAEDTAVYYCARATNWGSDYWGQGTLVTVSS VL: not shown	0.41	0.00011	260000	2.9	0.00097	340000	no binding (tested: 100 nM)			
antibody 18113 (antibody, V domains shown, Tested as human IgG1 L234A/L235A (LALA), kappa) VH: QVQLVESGGGLVKPGGSLRLSCAASGFTFSDYYMSWIRQAPGKGLEWVSYISSSGSTIYYADSAKGRFTISRDNAKNSLYLQMNSLRAEDTAVYYCARDTNWAFDYWGQGTLVTVSS VL: DIQLTQSPDSLAVSLGERATINCKSSQSVFYSANNKNYLAWYQQKPGQPPKLLIYWTSTRESGVPDRFRGSGSGTDFTLTISSLQAEDVAVYYCQQFYSTPRTFGQGTKVEIKR	0.6	0.0001	170000	5.3	0.00076	140000	no binding (tested: 100 nM)			
antibody 18049 (antibody, V domains shown, Tested as human IgG1 L234A/L235A (LALA), kappa) VH: QVQLVESGGGVVQPGRSLRLSCAASGFTFSNYGMHWVRQAPGKGLEWVAVIWYDGSDKYYADSVKGRFTISRDNSKNTLYLQMNSLRAEDTAVYYCAGGGNYYGDFWGQGTLVTVSS VL: EIVMTQSPSSLSASVGDRVTITCRASQGIRNDLGWYQQKPGKAPKRLIYVASNLQSGVPSRFSGSGSGTEFTLTISSLQPEDFATYYCLQYNSYPWTFGQGTKVEIKR	1.8	6e-05	34000	2.1	8e-05	38000	no binding (tested: 100 nM)			
antibody 18098 (antibody, V domains shown, Tested as human IgG1 L234A/L235A (LALA), kappa) VH: QVQLQESGGGLVRPGGSLRLSCAASGFTFSSFAMNWVRQAPGKGLVWVSTITGGGTTSYYADSVKGRFTISRDNSKSTLFLQMNSLRAEDTAVYYCAKWGSWSAGAFDIWGQGTTVTVSS VL: DIQLTQSPSSVSASVGDRVTITCRASQGISSWLAWYQQKPGKAPKLLIYAASSLQSGVPSRFSGSGSGTDFTLTISSLQPEDFATYYCQQANSFPWTFGQGTKVEIKR	2.3	0.00023	100000	34	0.0013	39000	no binding (tested: 100 nM)			

Other lines, results leading:

Kd [1] [nM]	koff [1] [s⁻¹]	kon [1] [M⁻¹ s⁻¹]	Kd [2] [nM]	koff [2] [s⁻¹]	kon [2] [M⁻¹ s⁻¹]	binding result [3]	Kd [3] [nM]	koff [3] [s⁻¹]	kon [3] [M⁻¹ s⁻¹]	Binder
1.6	0.00035	230000	3.7	0.00087	230000		11	5e-05	4700	antibody 18400 (antibody, V domains shown, Tested as human IgG1 L234A/L235A (LALA), kappa) VH: QLQLQESGPGLVKPSGTLSLTCAVSGGSISSSNWWSWVRQPPKKGLEWVGEIFHDGTTSYNPSLKSRVTMSVDKSKNQFSLKLSSVTAADTAVYYCARGNWGSGALDIWGPGTMVTVSS VL: EIVMTQSPSPLSASVGDRVTITCRASQGIRNDLGWYQQKPGKAPKLLIYAASSLQSGVPSRFSGSGSGTDFTLTISSLQPEDFATYYCLQDYNYPRTFGQGTKVEIKR
1.5	0.00011	77000	6.4	0.00062	97000	no binding (tested: 100 nM)				antibody 18413 (antibody, V domains shown, Tested as human IgG1 L234A/L235A (LALA), kappa) VH: EVQLVESGGGLVQPGGSLRLSCAASGFTFSSFVMSWVRQAPGKGLEWLSTISGGGGSTYYADSVKGRFTISRDNSKNTLYLQMNSLRAEDTAVYYCAKDWDLYYFDYWGQGTLVTVSS VL: DIQLTQSPSSVPASVGDRVTITCRASQGISNWLAWYQQKPGKAPKLLIYAASSLQSGVPSRFSGSGSGTDFTLTISSLQPEDFATYYCQQANSFPLTFGGGTKVEIKR
0.82	0.00011	130000	4.3	0.00062	140000	no binding (tested: 100 nM)				antibody 18325 (antibody, V domains shown, Tested as human IgG1 L234A/L235A (LALA), kappa) VH: QVQLQQSGGGLVQPGGSLRLSCAASGFTFSSHVMNWVRQAPGKGLEWVATISGSGVDTYYADSVKGRFTISRGNSKNMLYLQMNSLRAEDTAVYYCAKWGSWSAGAFDIWGQGTMVTVSS VL: EIVLTQSPSSVSASVGDRVTITCRASQGISSWLAWYQQKPGKAPKLLIYAASSLQSGVPSRFSGSGSGTDFTLTISSLQPEDFATYYCQQANSFPWTFGQGTKVEIKR
0.29	0.00017	580000	3.1	0.0008	260000	no binding (tested: 100 nM)				antibody 18483 (antibody, V domains shown, Tested as human IgG1 L234A/L235A (LALA), kappa) VH: QVQLQQSGGGLVQPGGSLRLSCAASGFTFSDYWMNWVRQAPGKGLEWVANIKEDGNEKYYVDSVKGRFTISRDNAKNSLYLQMNSLRAEDTAVYYCARDTNWGSDYWGQGTLVTVSS VL: not shown
